Reference: patent CN110156894A (JIANGSU NUOMAIBO BIOMEDICAL TECH CO LTD, dated 2019)
Substitutions are numbered along the chain they refer to.

T1: 重组TEM8蛋白(义翘神州) (human, UniProt Q9H6X2 33-321, limits assumed)
T1 construct: also called TEM8重组蛋白; recombinant TEM8 protein (Sino Biological)
T1 sequence (looked up): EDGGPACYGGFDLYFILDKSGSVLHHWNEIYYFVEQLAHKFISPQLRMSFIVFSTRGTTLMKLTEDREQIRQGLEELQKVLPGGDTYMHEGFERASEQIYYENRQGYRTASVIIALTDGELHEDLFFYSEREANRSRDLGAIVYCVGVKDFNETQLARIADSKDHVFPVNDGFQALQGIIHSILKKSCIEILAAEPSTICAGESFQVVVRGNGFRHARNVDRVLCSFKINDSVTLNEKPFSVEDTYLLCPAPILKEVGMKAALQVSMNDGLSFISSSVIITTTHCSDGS

B1: HUT104 (antibody, human IgG1, kappa, V domains shown)
VH: EVQLQESGPGLVKPSETLSLTCTVTGDSISSDYWNWVRQAPGQRLEWMGYISYSGNTYTNPSLKSRITINRDTSKNQFSLQLNSVTPEDTAVYYCARYKTITSAFDVWGQGTTVTVSS
VL: EIVMTQSPATLSVSPGERATLSCRASQNIRDFLHWYQQKPGQAPRLLIYYASQSISGIPARFSGSGSGTDFTLTISSLEPEDFAVYYCQNGHSFPYTFGGGTKVEIKR
notes: also called TEM8抗体HUT104; 单克隆抗体HUT104
B2: HUT103 (antibody, human IgG1, kappa, V domains shown)
VH: B1 VH with A104V, F105L
VL: B1 VL
notes: also called TEM8抗体; 单克隆抗体HUT103
B3: HUT105 (antibody, human IgG1, kappa, V domains shown)
VH: B1 VH with A104M
VL: B1 VL
notes: also called TEM8抗体; 单克隆抗体HUT105

Assays:
重组TEM8蛋白(义翘神州) [1] = molecular target: T1, 重组TEM8蛋白(义翘神州); assay: ELISA, antibody on plate-bound TEM8 protein, anti-human IgG-HRP, OD450
TEM8 on TEM8过表达细胞 [2] = molecular target: T2, TEM8 on TEM8过表达细胞 (UniProt Q9H6X2 33-564, limits assumed); assay: cell-based ELISA on HCT116/TEM8 cells
T2 construct: whole, on cells; One molecule is used for cell-surface TEM8 on both cell lines; the cell line is named under assay; also called TEM8稳定过表达细胞株 (CHO-K1); TEM8过表细胞

TEM8 on TEM8过表达细胞 [3] = molecular target: T2, TEM8 on TEM8过表达细胞; assay: cell-based assay on TEM8 overexpressing cells, anti-human-IgG-Eu fluorescence
重组TEM8蛋白(义翘神州) [4] = molecular target: T1, 重组TEM8蛋白(义翘神州); assay: ELISA on plate-bound TEM8 protein, method as in Example 2

Row | Binder | EC50 (重组TEM8蛋白(义翘神州) [1]) [µg/mL] | EC50 (TEM8 on TEM8过表达细胞 [2]) [µg/mL] | EC50 (TEM8 on TEM8过表达细胞 [3]) [µg/mL] | EC50 (重组TEM8蛋白(义翘神州) [4]) [µg/mL]
1 | B1 | 0.00317 | 0.128 | 0.105 | 0.00176
2 | B2 | 0.00453 |  | 0.13 | 
3 | B3 | 0.00357 |  | 0.113 | 
